Measurements reported in patent publication US20220259593A1, “CONTROL OF MAMMALIAN GENE DOSAGE USING CRISPR” (The Regents of the University of California, priority 2019, published 2022).

B1: cr178 (nucleic acid)
guide: GTTTAAGAGCTAAGCTGGAAACAGCATAGCAATTTTAAATGAGGCTAGTCCGTTATCGACTTGAAAAAGTGGCACCGAGTCGGTGCT
modifications: listed as DNA, chemistry not fully specified
B2: cr817 (nucleic acid)
guide: GTTTAAGAGCTAAGCTGGAAACAGCATAGCAAGGTTAAATAGGGCTAGTCCGTTATCAACTTGATAAAGTGGCACCGAGTCGGTGCT
modifications: listed as DNA, chemistry not fully specified
B3: cr637 (nucleic acid)
guide: GTTTAAGAGCTAAGCTGGAAACAGCATATCAAGATTAAATAAGGCTAGTCCGTTATCAACTTGAGAAAGTGGCACCGAGTCGGTGCT
modifications: listed as DNA, chemistry not fully specified
B4: cr235 (nucleic acid)
guide: GTTTAAGAGCTAAGCTGGAAACAGCATAGCAAGTTTAAATAAGGCTAGTCCGTTATCAACATGAGAATGTGGCACCGAGTCGGTGCT
modifications: listed as DNA, chemistry not fully specified
B5: cr589 (nucleic acid)
guide: GTTTAAGAGCTAAGCTGGAAACAGCATAGCAAGTTTAAATAATGATATTCAGTTATCAACTTGAAAAAGTGGCACCGAGTCGGTGCT
modifications: listed as DNA, chemistry not fully specified
B6: cr564 (nucleic acid)
guide: GTTTAAGAGCTAAGCTGGAAACAGCATAGCAAGGTTAAATAAGGCTAGTCCGTTATCAACTTGAAAAAGTGGCAGCGAGTCGCTGCT
modifications: listed as DNA, chemistry not fully specified
B7: cr828 (nucleic acid)
guide: GTTTAAGAGCTAAGCTGGAAACAGCATAGCAGGTTTAAATAAGGCTAGTCCGTTATCAACTTGAAAAAGTGGCACCGAGTCGGTGCT
modifications: listed as DNA, chemistry not fully specified
B8: cr686 (nucleic acid)
guide: GTTTAAGAGCTAAGCTGGAAACAGCATAGCAACTTTAAATAAGGCTAGTCCGTTATCAACTTGAAAAAGTGGCACCGAGACGGTGCT
modifications: listed as DNA, chemistry not fully specified
B9: cr326 (nucleic acid)
guide: GTTTAAGAGCTAAGCTGGAAACAGCATAGCAAGCTTAAATAACGCTAGTCGGTTATCAACTTGAAAAAGTGGCACCGAGTCGGTGCT
modifications: listed as DNA, chemistry not fully specified
B10: cr595 (nucleic acid)
guide: GTTTAAGAGCTAAGCTGGAAACAGCATAGCAAGTTTAAATAACGCTAGTCCGTTATCAACTTGAAAAAGTGGCACCGAGTCGGTGCT
modifications: listed as DNA, chemistry not fully specified
B11: cr233 (nucleic acid)
guide: GTTTAAGAGCTAAGCTGGAAACAGCATAGCAACTTTAAATAAGGCTAGTCCGTTATCAACTTGAAAAAGTGGCACCCAGTGGGTGCT
modifications: listed as DNA, chemistry not fully specified
B12: cr673 (nucleic acid)
guide: GTTTAAGAGCTAAGCTGGAAACAGCATAGCAACTTTAAATAAGGCTAGTCCGTTATCAACTTGAAAAAGTGGCACCGTGTCGGTGCT
modifications: listed as DNA, chemistry not fully specified
B13: cr033 (nucleic acid)
guide: GTTAAAAAGCTAAGCTGGAAACAGCATAGCAAGTTTAAATAAGGCTAGTCCGTTATCAACTTGAAAAAGTGGCACCGAGTCGGTGCT
modifications: listed as DNA, chemistry not fully specified
B14: cr921 (nucleic acid)
guide: GTTTAAGAGCTAAGCTGGAAACAGCATAGCAAAGTTAAATAAGGCTAGTCCGTTATCAACTTGAAAAAGTGGCACCGAGTCGGTGCT
modifications: listed as DNA, chemistry not fully specified
B15: cr802 (nucleic acid)
guide: GTTTAAGAGCTAAGCTGGAAACAGCATAGCAAGTTTAAATAACGCTAGTCGGTTATCAAGTTGAAAAACTGGCAGCGAGTCGCTGCT
modifications: listed as DNA, chemistry not fully specified
B16: cr058 (nucleic acid)
guide: GTTGCAGAGCTAAGCTGGAAACAGCATAGCAAGTTTAAATAAGGCTAGTCCGTTATCAACTTGAAAAAGTGGCACCGAGTCGGTGCT
modifications: listed as DNA, chemistry not fully specified
B17: cr065 (nucleic acid)
guide: GTATACGAGCTAAGCTGGAAACAGCATAGCAAGTTTAAATAAGGCTAGTCCGTTATCAACTTGAAAAAGTGGCACCGAGTCGGTGCT
modifications: listed as DNA, chemistry not fully specified
B18: cr894 (nucleic acid)
guide: GTTTAAGAGCTAAGCTGGAAACAGCATAGCAACTTTAAATAAGGCTAGTCCGTTATCAATTTGAAAAAATGGCACCGAGTCGGTGCT
modifications: listed as DNA, chemistry not fully specified
B19: cr053 (nucleic acid)
guide: GATTCAGAGCTAAGCTGGAAACAGCATAGCAAGTTTAAATAAGGCTAGTCCGTTATCAACTTGAAAAAGTGGCACCGAGTCGGTGCT
modifications: listed as DNA, chemistry not fully specified
B20: cr122 (nucleic acid)
guide: GTTTAAGAGCTAAGCTGGAAACAGCATAGCAACTTTAAATAAGGCTAGTCCGTTATTAACTTGATAAAGTGGCACCGAGTCGGTGCT
modifications: listed as DNA, chemistry not fully specified
B21: cr179 (nucleic acid)
guide: GTTTAAGAGCTAAGCTGGAAACAGCATAGCAAGGTTAAATAAGGCTAGTCCGTTATCAACTTGAAAAAGTGGCACTGAGTCAGTGCT
modifications: listed as DNA, chemistry not fully specified
B22: cr847 (nucleic acid)
guide: GTTTAAGAGCTAAGCTGGAAACAGCATAGCAAGCTTAAATAAGGCTAGTCCGTTATCAACTTGAAAAAGTGGCACCCAGTGGGTGCT
modifications: listed as DNA, chemistry not fully specified

tested on: K562 CRISPRi cells; experiment: Constant region variant library pooled growth screen, K562; format: cell-based, human; conditions: sgRNA constant region variants; activity relative to the original, un-modified constant region cr995
In short: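 Growth screens in K562 CRISPRi cells were harvested 4-8 days post-selection at >2000× library coverage. Each variant's phenotype was referenced to the unmodified constant region with the same targeting sequence.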

Molecule | Mean relative activity
B1 | −0.0008744
B2 | −0.002514
B3 | −0.001265
B4 | 1.027
B5 | −0.005108
B6 | −0.001952
B7 | 1.028
B8 | −0.004019
B9 | −0.001062
B10 | −0.002984
B11 | −0.003511
B12 | −0.005072
B13 | −0.004656
B14 | −0.002203
B15 | −0.005377
B16 | −0.003151
B17 | −0.003148
B18 | −0.003408
B19 | −0.003704
B20 | −0.003408
B21 | −0.004493
B22 | −0.002682
